Source: article PMC3936014 (Nature communications, 2014)
Read-outs that look alike come from different tables or passages of the source.

What was measured:
[1] = target: T1, TFAM (mature) (Homo sapiens, UniProt Q00059 43-246); assay: FRET DNA bending
T1 sequence: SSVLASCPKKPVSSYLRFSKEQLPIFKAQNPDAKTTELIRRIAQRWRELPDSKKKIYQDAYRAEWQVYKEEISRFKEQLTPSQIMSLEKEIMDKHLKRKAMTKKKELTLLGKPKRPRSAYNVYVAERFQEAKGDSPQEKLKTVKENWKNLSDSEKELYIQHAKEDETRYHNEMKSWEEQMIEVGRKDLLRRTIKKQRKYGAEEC

[2] = target: T2, TFAM (43-237) (Homo sapiens, UniProt Q00059 43-237); assay: X-ray crystallography
T2 sequence: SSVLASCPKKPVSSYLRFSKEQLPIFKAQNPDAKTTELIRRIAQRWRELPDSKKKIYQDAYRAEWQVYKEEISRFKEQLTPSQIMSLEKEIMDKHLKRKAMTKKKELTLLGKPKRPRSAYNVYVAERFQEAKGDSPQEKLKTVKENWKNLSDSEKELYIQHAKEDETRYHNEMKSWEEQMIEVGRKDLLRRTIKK

[3] = target: the molecule itself; assay: crystal structure
[4] = target: T2, TFAM (43-237); assay: X-ray crystallography; remark: listed apart in the source
[5] = target: T2, TFAM (43-237); assay: X-ray crystallography; remark: listed apart in the source

B1: LSP 28 bp FRET (dsDNA)
DNA 1: TGTTAGTTGGGGGGTGACTGTTAAAAGT
DNA 2: ACTTTTAACAGTCACCCCCCAACTAACA
B1: binds [1].

B2: nonspecific 22 bp FRET (dsDNA)
DNA 1: ATTCAACCAATAGCCCTGGCCG
DNA 2: CGGCCAGGGCTATTGGTTGAAT
B2: binds [1].

B3: HSP1 22 bp (dsDNA)
DNA 1: GGTTGGTTCGGGGTATGGGGTT
DNA 2: AACCCCATACCCCGAACCAACC
B3: binds [2].

B4: TFAM (transcription factor A, mitochondrial) lacking the last 9 residues (43-237) (domain or fragment, human, UniProt Q00059 43-237, looked up)
chain: T2 sequence
B4: binds [3].

B5: HSP1 22 bp FRET (dsDNA)
DNA 1: GGTTGGTTCGGGGTATGGGGTT
DNA 2: AACCCCATACCCCGAACCAACC
B5: binds [1].

B6: HSP1-Br 22 bp (dsDNA)
DNA 1: GGTTGGTTCGGGGTATGGGGTT
DNA 2: AACCCCATACCCCGAACCAACC
modifications: 5-bromo-dU replacing T at strand 1 position 4 (mtDNA 550)
B6: binds [4].

B7: nonspecific 22 bp (ATPase6) (dsDNA)
DNA 1: ATTCAACCAATAGCCCTGGCCG
DNA 2: CGGCCAGGGCTATTGGTTGAAT
B7: binds [5].
